# Where two headings read alike, the source gives them in different places. No end group written: not given here.
# T1: His-huTDP-43 domain I (amino acid residues 2-106) (human)
# T1 construct: Amino terminal His-tagged fragment, E. coli; also called N-terminal domain
# T1 chain: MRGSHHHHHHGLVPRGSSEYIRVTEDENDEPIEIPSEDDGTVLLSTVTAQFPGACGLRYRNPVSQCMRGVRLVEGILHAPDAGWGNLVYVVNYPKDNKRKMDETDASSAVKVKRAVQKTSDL
# T2: mutant TDP-43 domain IV (TDP-43 258-414 AMM321GGG) (human, UniProt Q13148 258-414)
# T2 construct: Recombinant
# T2 chain: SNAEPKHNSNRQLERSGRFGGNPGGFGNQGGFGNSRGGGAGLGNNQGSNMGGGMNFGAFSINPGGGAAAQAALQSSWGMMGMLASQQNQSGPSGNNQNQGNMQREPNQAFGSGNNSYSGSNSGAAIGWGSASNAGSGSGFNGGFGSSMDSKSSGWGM
# T3: synthetic biotinylated peptide TDP-43 316-343 (human, biotinylated (site not stated))
# T3 construct: On streptavidin-coated plates
# T3 peptide: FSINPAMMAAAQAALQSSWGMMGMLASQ
# T4: synthetic biotinylated peptide TDP-43 316-353 (human, biotinylated (site not stated))
# T4 construct: On streptavidin-coated plates
# T4 peptide: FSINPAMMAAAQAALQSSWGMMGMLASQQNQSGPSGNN
# T5: synthetic biotinylated peptide TDP-43 316-333 (human, also: biotinylated (site not given here))
# T5 construct: On streptavidin-coated plates
# T5 peptide: FSINPAMMAAAQAALQSS
# T6: His-huTDP-43 domain III (amino acid residues 183-273) (human)
# T6 construct: Amino terminal His-tagged fragment, E. coli
# T6 chain: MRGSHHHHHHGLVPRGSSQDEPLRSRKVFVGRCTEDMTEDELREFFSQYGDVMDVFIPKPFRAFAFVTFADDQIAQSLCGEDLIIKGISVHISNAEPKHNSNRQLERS
# T7: His-huTDP-43 domain II (amino acid residues 99-204) (human)
# T7 construct: Amino terminal His-tagged fragment, E. coli
# T7 chain: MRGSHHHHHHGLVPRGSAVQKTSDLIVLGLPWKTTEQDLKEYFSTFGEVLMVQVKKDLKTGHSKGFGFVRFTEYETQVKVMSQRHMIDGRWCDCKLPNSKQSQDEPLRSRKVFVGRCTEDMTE
# Experiments:
# [1] = biological target: T8, 6xHis-SUMO-TDP-43 (220-414) (human, UniProt Q13148 220-414); experiment: capture ELISA, antigen held by anti-6xHis antibody
# T8 construct: Captured on the plate by an anti-6xHis antibody; also called 6xHis/SUMO tagged truncated TDP-43; not shown: N-terminal 6xHis and SUMO tags from a modified pET19-b vector
# Method in brief: (§1)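 Anti-6×His antibody captured 6×His-SUMO-TDP-43 (1.7 μM, 1 hr RT) in PBS with 1% BSA, 300 mM arginine and 0.1% PEG 5000, pH 7.5, avoiding direct adsorption. Three-fold antibody titrations were incubated 1 hr RT and detected with HRP anti-human IgG Fc colorimetrically. EC₅₀ from a four-parameter logistic fit.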
# [2] = biological target: T9, 6xHis-SUMO-TDP-43 (1-414), properly folded full length (human, UniProt Q13148 1-414); experiment: capture ELISA, antigen held by anti-6xHis antibody
# T9 construct: Purified with KSCN and arginine, monomeric; captured on the plate by an anti-6xHis antibody; also called folded full-length TDP-43; 6xHis/SUMO tagged full length TDP-43; not shown: N-terminal 6xHis and SUMO tags from a modified pET19-b vector
# Method in brief: as §1
# [3] = biological target: T10, recombinant full-length His-tagged human TDP-43 (2-414) (human, UniProt Q13148 2-414); experiment: direct ELISA, coated antigen
# T10 construct: Amino terminal His tag, made in E. coli, purified in 8 M urea; also called full length TDP-43; full-length TDP-43
# Method in brief: (§2)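 Plates coated overnight at 4° C with full-length TDP-43 at 5 μg/ml in carbonate buffer pH 9.6, with E. coli extract and BSA coated alongside. After blocking with 2% BSA, antibodies incubated 1 hr at room temperature and detected by HRP anti-human IgGγ colorimetric read-out. EC₅₀ from non-linear regression.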
# [4] = biological target: T1, His-huTDP-43 domain I (amino acid …); experiment: direct ELISA, coated antigen; direct ELISA, domain coated at 6.6 ug/ml (Example 7, FIG. 5)
# Protocol: (§3) Non-specific binding sites were blocked for 1 hr. at room temperature with PBST containing 2% BSA (Sigma, Buchs, Switzerland). Antibodies were incubated 1 hr. at room temperature. Binding was determined using either a donkey anti-human IgGγ-specific antibody conjugated with HRP (Jackson ImmunoResearch, USA) or a goat-anti mouse IgG (H+L)-specific secondary antibody conjugated with HRP (Jackson ImmunoResearch, USA)., followed by measurement of HRP activity in a standard colorimetric assay.
# (§4) Binding of the human-derived antibodies was determined by direct ELISA.
# [5] = biological target: T11, TDP-43 C terminal fragment 340-414 (human, UniProt Q13148 340-414); experiment: direct ELISA, coated fragments
# T11 construct: Recombinant fragment
# [6] = biological target: T12, TDP-43 C terminal fragment 258-319 (human, UniProt Q13148 258-319); experiment: direct ELISA, coated fragments
# T12 construct: Recombinant fragment
# [7] = biological target: T13, BSA (bovine, UniProt P02769); experiment: direct ELISA, BSA coated at 5 ug/ml as control, OD 450
# T13 construct: control coating in the EC50 ELISA; also called bovine serum albumin (Sigma, Buchs, Switzerland)
# Protocol: To determine the half maximal effective concentration (EC₅₀) of the human-derived TDP-43-specific antibodies for human TDP-43 and to evaluate target-specificity, 96 well microplates (Corning) were coated with recombinant full length TDP-43 (Biogen Idec, USA), Escherichia coli extract and BSA (Sigma, Buchs, Switzerland), diluted to a concentration of 5 μg/ml in carbonate ELISA coating buffer (pH 9.6) overnight at 4° C. […] Non-specific binding sites were blocked for 1 hr. at room temperature with PBS containing 2% BSA (Sigma, Buchs, Switzerland). Human TDP-43-specific antibodies were diluted to the indicated concentrations and incubated 1 hr. at room temperature. Binding was determined using a donkey anti-human IgGγ-specific secondary antibody conjugated with HRP (Jackson ImmunoResearch, USA), followed by measurement of HRP activity in a standard colorimetric assay. EC₅₀ values were estimated by a non-linear regression using GraphPad Prism software (San Diego, USA).
# The half maximal effective concentration (EC₅₀) of the human-derived TDP-43-specific antibodies for human TDP-43 and their target target-specificity was determined substantially as described in Example 2 above. […]
# [8] = biological target: T2, mutant TDP-43 domain IV (TDP-43 258-414 …); experiment: direct ELISA, coated antigen
# [9] = biological target: T3, synthetic biotinylated peptide TDP-43 …; experiment: direct ELISA, biotinylated peptide on streptavidin plate
# [10] = biological target: T4, synthetic biotinylated peptide TDP-43 …; experiment: as above
# [11] = biological target: T5, synthetic biotinylated peptide TDP-43 …; experiment: as above
# [12] = biological target: T1, His-huTDP-43 domain I (amino acid …); experiment: direct ELISA, TDP-43 fragments coated at 6.6 ug/ml, OD 450
# Protocol: as §3
# [13] = biological target: T6, His-huTDP-43 domain III (amino acid …); experiment: as above
# Protocol: as §3
# [14] = biological target: T7, His-huTDP-43 domain II (amino acid …); experiment: as above
# Protocol: as §3
# [15] = biological target: T14, His-huTDP-43 domain IV (amino acid residues 258-414) (human, UniProt Q13148 258-414); experiment: as above
# T14 construct: Amino terminal His-tagged fragment, E. coli, solubilized in 8 M urea; also called Glycine-rich domain
# Protocol: as §3
# [16] = biological target: T1, His-huTDP-43 domain I (amino acid …); experiment: direct ELISA, coated antigen; direct ELISA, domain coated at 6.6 ug/ml (Example 7, FIG. 5M)
# Protocol: as §3, §4
# [17] = biological target: T10, recombinant full-length His-tagged …; experiment: direct ELISA, coated antigen; remark: listed apart in the source
# Method in brief: as §2
# [18] = biological target: T6, His-huTDP-43 domain III (amino acid …); experiment: direct ELISA, His-tagged TDP-43 fragments coated at 6.6 ug/ml, OD 450
# Protocol: as §3
# [19] = biological target: T7, His-huTDP-43 domain II (amino acid …); experiment: as above
# Protocol: as §3
# [20] = biological target: T14, His-huTDP-43 domain IV (amino acid …); experiment: as above
# Protocol: as §3
# [21] = biological target: T1, His-huTDP-43 domain I (amino acid …); experiment: direct ELISA, coated antigen; direct ELISA, domain coated at 6.6 ug/ml (Example 1, FIG. 2H)
# Protocol: as §3
# (§5) The polypeptides were coated onto ELISA plates at equal coating concentration of 6.6 μg/ml (recombinant TDP-43 and TDP-43 fragments) or 3.3 μg/ml (synthetic peptides). Binding of the human-derived antibodies was determined by direct ELISA.
# [22] = biological target: T1, His-huTDP-43 domain I (amino acid …); experiment: direct ELISA, His-tagged TDP-43 fragments coated at 6.6 ug/ml, OD 450
# Protocol: as §3
# [23] = biological target: T7, His-huTDP-43 domain II (amino acid …); experiment: direct ELISA, coated antigen; direct ELISA, domain coated at 6.6 ug/ml (Example 1, FIG. 2F)
# Protocol: as §3, §5
# T13 sequence (P02769 25-607 limits assumed): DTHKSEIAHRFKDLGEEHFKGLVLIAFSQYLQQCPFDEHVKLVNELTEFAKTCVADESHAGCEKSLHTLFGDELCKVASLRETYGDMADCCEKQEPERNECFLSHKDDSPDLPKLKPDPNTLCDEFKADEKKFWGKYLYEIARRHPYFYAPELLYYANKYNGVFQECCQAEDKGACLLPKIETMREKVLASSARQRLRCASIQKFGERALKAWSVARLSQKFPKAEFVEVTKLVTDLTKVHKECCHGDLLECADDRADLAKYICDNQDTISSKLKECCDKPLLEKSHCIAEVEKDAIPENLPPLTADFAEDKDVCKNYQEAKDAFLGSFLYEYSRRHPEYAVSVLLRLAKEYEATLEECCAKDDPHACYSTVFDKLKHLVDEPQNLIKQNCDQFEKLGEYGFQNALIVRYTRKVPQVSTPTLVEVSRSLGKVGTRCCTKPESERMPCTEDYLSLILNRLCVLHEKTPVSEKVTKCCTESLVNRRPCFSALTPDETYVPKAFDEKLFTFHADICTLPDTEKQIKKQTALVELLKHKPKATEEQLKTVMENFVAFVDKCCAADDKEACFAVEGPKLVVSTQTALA
binder,measurement,setting,value
"NI-205.29E11 (antibody, human IgG1, V domains shown, Human-derived) VH: QVQLVQSGAEVKKPGASVKVSCKASGYIFTDYFIHWIRQAPGQGLEWMGWIKPKSGGTDYAEKFQGRVTLTRDTSITTVYMELSRLNSDDTAVYYCARLKYSVPDSDYWGQGTLVTVSS VL: DVVMTQSPLSLPVTLGQSASISCRSSQGLVHSDGNTYLNWFHQRPGQSPRRLIYKVFNRDSGVSDRFSGSGSGSDFTLMISRVEAEDVGIYYCMQGTLWPLTFGQGTKVEIK",EC50,[1],> 97 nM
same,EC50,[2],> 100 nM
same,EC50,[3],10.4 nM
same,binding result,[4],binds
"NI-205.41D1 (antibody, human IgG1, V domains shown, Human-derived; also called NI-41D1) VH: EVQLVESGGGLVQPGGSLRLSCAASGFTFSTYYMSWVRQAPGKGLEWVANIKQDGSEKYYVDSVKGRFTISRDNARNSLYLQMHSLRAEDTAVYYCASPPGWWGQGTLVTVSS VL: DIVMTQTPLSLSVTPGQPASISCKSSQSLLHSDGKTYLYWYLQKPGQPPQLLIYEVSNRFSGVPDRFSGSGSGTDFTLKISRVEAEDVGVYYCMQSIQLPVTFGGGTKVEIK",binding result,[5],no binding
same,binding result,[6],no binding
same,binding result,[7],no binding (tested: about 4x10^5 pM)
same,binding result,[8],no binding
same,binding result,[9],binds
same,binding result,[10],binds
same,binding result,[11],no binding
same,EC50,[1],0.1 nM
same,binding result,[12],no binding
"NI-205.8C10 (antibody, human IgG1, V domains shown, Human-derived) VH: EVQLVESGGGLVNPGGSLRLSCTASGFSFSTYSMNWVRQAPGKGLEWVSLITSSGSYIYYADSVKGRFTISRDDAKNSLYLQMNSLRAEDTAVYYCANMLAAAGSHYFHYWGQGTLVTVSS VL: not shown",binding result,[13],no binding
same,binding result,[14],no binding
same,binding result,[15],no binding
same,EC50,[3],15.6 nM
same,binding result,[16],binds
"NI-205.87E7 (antibody, human IgG1, V domains shown, Human-derived) VH: EVQLLESGGGLVQPGGSLRLSCAASGFTFSSYAMSWVRQAPGKGLEWVSAISGGGDRTYSADSVKGRFTISRDNSKNTLYLQINSLRVEDTAVYYCAQGGGGEMTAVTMDGTYYGMDVWGQGTTVTVSS VL: QSALTQPRSVSGSPGQSITISCTGTSSNVGTYKFVSWYQQHPGKAPKLMIYDVTKRPSGVPDRFSGSKSGNTASLTISGLQAEDEADYYCCSYAGSYTYVFGSGTKVTVL",EC50,[17],17.2 nM
same,binding result,[18],no binding
same,binding result,[19],no binding
same,binding result,[20],no binding
same,binding result,[21],binds
same,binding result,[1],no binding
same,EC50,[3],17.2 nM
"NI-205.113C4 (antibody, human IgG1, V domains shown, Human-derived) VH: QVQLVQSGAEVKKPGASVKVSCKASGYTFTNYYMHWVRQAPGQGLEWMGIINPSGGRTSYAQKFQGRASMTRDTSTSTVYMEVISLRSEDTAVYYCARQRPSGYSGYGPSESYGNPTDDAFDVWGQGTTVTVSS VL: SYVLTQPPSVSVAPGQTARITCGGNNIGSRGVHWYQQRPGQAPVLVVYDDSDRPSGIPERFSGSNSGDTATLTISRVEVGDEADYYCQVWDNSSDHLVVFGGGTKLTVL",EC50,[17],13.2 nM
same,binding result,[18],no binding
same,binding result,[22],no binding
same,binding result,[20],no binding
same,binding result,[1],no binding
same,binding result,[23],binds
same,EC50,[3],13.2 nM

# Reference: US20170152308A1 (Biogen, published 2017)
